Molecular target: mutant pp60c-Src tyrosine kinase (SRC 531 mutant, truncated c-Src) (human) (UniProt P12931)
Assay: cell-based or functional assay

K50% (competitive inhibition of enolase phosphorylation): 5 µM | Km (kinase reaction, 32P incorporation into peptide, phosphocellulose paper): 2 µM | Vmax (kinase reaction, 32P incorporation into peptide, phosphocellulose paper): 0.9 µM/mg/min
Substance: peptide Ala-Glu-Glu-Glu-Ile-Tyr-Gly-Glu-Phe-Glu-Ala-Lys-Lys-Lys-Lys

— patent US20040261142A1
